The values below come from the RNAGym collection of RNA variant scans (doi:10.1073/pnas.2313332121).

B1: TPR t1 (parent)
chain: GACCAAUCUGCCCUCAGAGCUCGAGAACAUCUUCGGAUGCAGAGGAGGCAGGCUUCGGUGGCGCGAUAGCGCCAACGUCCUCAACCUCCAAUGCAUCCCACCACAUGAUGAUGCCUGAAGAGCCUUGGUUUUUUG

The variants in this series derive from B1. Briefly: polymerase ribozyme fitness, log enrichment relative to wild type (log ratio); higher = more active; in vitro selection for triplet polymerase activity. The gist of the method:
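Mutant libraries for each subunit of a heterodimeric triplet polymerase ribozyme were made by PCR and then transcribed. Each library underwent one round of in vitro selection in triplicate: annealing with a biotinylated primer, the partner subunit and triplets, frozen incubation at −7 °C, gel excision of extended constructs, streptavidin-bead capture and RT-PCR. Input and output libraries were Illumina-sequenced, and only genotypes with ≥10 input reads and ≥1 read per output were kept. Fitness is the logarithm, base 2, of genotype enrichment over wild-type enrichment, computed from inverse-variance-weighted replicate averages.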
C8A G35A G61A C89U A95U U106A: the “polymerase ribozyme fitness (log ratio)” value was -6.13.
Consider C8A A41U C49U, for which the “polymerase ribozyme fitness (log ratio)” value was -1.56.
To C8G C12G U55G G61U G71A belongs -6.64.
In the case of C8A A43C C86G C123U U129G it was -2.96.
In the case of C8A C12U C114U U116G, the “polymerase ribozyme fitness (log ratio)” value was -4.98.
Take C8G C13G G36A C72U U78A A111C: the “polymerase ribozyme fitness (log ratio)” value came to 0.397.
To C8A A18C C56G A95G belongs -2.26; to U7G G10U C15A U54A C72G C104A, -2.9; to C8G A29U U55G C56A C94U C124A, -1.05.
To C8A G17A C72U U126A belongs -3.12; to C8G G52C C62U C89U, -1.08.
In the case of C8A G47A C80A U112A it was -5.77; in that of U7G C11G C124U, 1.49; in that of C8G U116C, -0.0708.
For C8G G63C G117C C124A, the “polymerase ribozyme fitness (log ratio)” value was -1.86.
For the variant C8G G35U C123A, the “polymerase ribozyme fitness (log ratio)” value was -3.92.
In the case of C8A G48U C53A C82U U106A A108G it was -1.56; in that of C8G A18U C73G U126G, -5.64; in that of C8A G52A C98A, -4.9.
In the case of C8A C115G it was -0.0701.
Consider C8A C115U, for which the “polymerase ribozyme fitness (log ratio)” value is -0.595.
As to C8A G47C, the “polymerase ribozyme fitness (log ratio)” value is -1.8.
On to C8G C98G U132C, for which the “polymerase ribozyme fitness (log ratio)” value was -4.39.
To U7G G52A C104A C114G U133G belongs -3.61; to C8G C12G A46U, -0.837.
In the case of C8A U21A C34G C70A U109G it was -5.88; in that of C8A A37C, 0.0805.
To U7G U96A A121C belongs 0.553; to U7G C88U G93C, -1.33.
With C8A G47C C56G C82U U87A C101U G107U C115U A118C, the “polymerase ribozyme fitness (log ratio)” value is -6.49.
To C8G G48A G120C U125C belongs 1.03; to C8G U14C C79U U87A U112A, 2.12; to C8G C13A C85U G135U, -1.16.
On to U7G C40U A41C G71U G113A, for which the “polymerase ribozyme fitness (log ratio)” value was -2.26.
To C8G C49A U92A C123U belongs -1.03; to U7G G39A C114G, -2.02.
To U7G C12G A37G belongs 0.709; to C8G C49G C89G, -1.42; to C8G C13U G45C A84C, 0.0875.
In the case of C8G G69U G107U G113A it was -1.04.
In the case of C8A C28A G63U G77C C86A U112C, the “polymerase ribozyme fitness (log ratio)” value was -6.46.
For C8A C53U U55A G77A C89A U129C, the “polymerase ribozyme fitness (log ratio)” value was -3.11.
In the case of C8A U9G A16G A24G G39C G60A C64A U92C G110U G113U A121U C123G U126G, the “polymerase ribozyme fitness (log ratio)” value is -6.69.
As for C8G G39U C123U, the “polymerase ribozyme fitness (log ratio)” value was 1.42.
In the case of C8G A74C it was 0.88; in that of C8A A50C C62A C82A C85A C88U C89G A121U, -3.62.
With C8A C101U G117U, the “polymerase ribozyme fitness (log ratio)” value was -0.423.
To C8A A121U belongs 2.6; to C8G A43U U54C C114A A118G, -4.79; to U7G G110U, -0.723.
Turning to C8G G69U, the “polymerase ribozyme fitness (log ratio)” value came out at 0.724.
As for C8G C20G G44U, the “polymerase ribozyme fitness (log ratio)” value is -4.75.
Consider C8G C28G C97A U106A C115U U133G, for which the “polymerase ribozyme fitness (log ratio)” value is -5.09.
In the case of C8G C22U C53A C101A A121G C124A it was -3.25; in that of C8A A84U, 0.295.
To C8A G63U G77C G117C belongs -4.17; to C8A A91G C98U, -1.37.
Turning to C8G G47C C85G, the “polymerase ribozyme fitness (log ratio)” value was -1.92.
In the case of C8G C13G U54C it was 0.758; in that of U7G C73A C80A G128C, -5.2.
To U7G G120A belongs 1.99; to U7G C40U U54C C73A U106A, 1.14; to C8G C56A G77U C88G U92A G113C G122A C123G, -3.34.
Take U7G G10A G39U G69C C101G G110C: the “polymerase ribozyme fitness (log ratio)” value was -7.07.
In the case of C8A U21G it was -1.24.
In the case of C8G G69C G113A, the “polymerase ribozyme fitness (log ratio)” value is -1.36.
In the case of C8G A46U G63C it was -0.288.
In the case of C8A A74C G93C U116A it was -2.46.
To C8A C101G belongs -1.63; to C8A C12A C79U C80U C114U, -4.99; to U7G C11U C49A C56A G107U C114U, -4.37.
For the variant U7G G10U C79G, the “polymerase ribozyme fitness (log ratio)” value is -1.66.
To C8U A16U G77U C123U belongs 0.933; to U7G G69A C101U, -2.81.
In the case of C8G G71A C73A C94U C104U it was -1.01; in that of C8G C53U, 0.216.
In the case of C8A C12A C85U it was -0.437.
In the case of C8U A26G C49U G57C U112A, the “polymerase ribozyme fitness (log ratio)” value was -0.963.
As for C8G G36A G44A C70G, the “polymerase ribozyme fitness (log ratio)” value is -4.2.
Consider U7G G69U G122A, for which the “polymerase ribozyme fitness (log ratio)” value is 0.793.
C8G C97U C102U: the “polymerase ribozyme fitness (log ratio)” value was -1.4.
C8A C53G C56A C70U C97U U112A C124U: the “polymerase ribozyme fitness (log ratio)” value was -0.44.
For the variant C8A C13U U55G G69A, the “polymerase ribozyme fitness (log ratio)” value is -2.21.
To C8G C89U belongs -0.514.
